Assay results taken from PMC4448555.

Molecular target: Bcl-xL∆L∆CT (C-terminal and loop-truncated Bcl-xL)
Assay: SAXS; purified OM-induced Bcl-xL dimer, 1 mg/ml and 3 mg/ml, 15 °C; mass from forward scattering against lysozyme

Substance: Bcl-xL∆L∆CT (C-terminal and loop-truncated Bcl-xL) (domain or fragment)
- stoichiometry N: 2
